These results are taken from article PMC4266533, “Kinetics of the early events of GPCR signalling” (Febs Letters, 2014).

What is called Kd is the equilibrium constant for the complex coming apart.

Experiment [1] has as its target T1, FLAG-NTS1 (neurotensin receptor type 1) reconstituted into PC:PG nanodiscs, neurotensin-bound (UniProt P20789 1-424).
T1 construct: Neurotensin (NT), 13 amino acid peptide, agonist kept in excess (5 uM) with the receptor; The receptor stood in ~10 nm lipid nanodiscs with the belt protein MSP1D1 (Addgene plasmid 20061, made in E. coli BL21(DE3)); MSP1D1 is not written as a chain; Primarily one receptor per disc (50:1 MSP1D1:FLAG-NTS1); also called FLAG-NTS1-PC:PG nanodiscs; NTS1-nanodiscs
The experiment can be described thus: SPR; Gα amine-coupled to a CM5 chip (Biacore T100/T200); NT-bound (5 uM NT) anti-FLAG-enriched FLAG-NTS1-PC:PG nanodiscs as analyte, serially diluted from 660 nM or 400 nM; single cycle kinetics at 30-50 ul/min; empty nanodiscs as reference, double-referenced; 50 mM Tris-HCl pH 7.4, 100 mM NaCl, 5 mM MgCl2; heterogeneous ligand binding global fit. Conditions: both partners purified. On the technique in general: Surface plasmon resonance follows binding to a sensor surface in real time, without labels.

Experiment [2] concerns the target T1, FLAG-NTS1 (neurotensin receptor type 1) …. The experiment can be described thus: SPR; FLAG-NTS1-PC:PG nanodiscs (2500 RU) captured on an L1 chip, empty PC:PG nanodiscs (2000 RU) in the reference cell; His6-Gs as analyte, 62.5-1000 nM, 150 s per concentration at 50 ul/min; 1:1 Langmuir and heterogeneous ligand binding fits. Particulars: both partners purified.

T1 sequence (P20789 whole entry): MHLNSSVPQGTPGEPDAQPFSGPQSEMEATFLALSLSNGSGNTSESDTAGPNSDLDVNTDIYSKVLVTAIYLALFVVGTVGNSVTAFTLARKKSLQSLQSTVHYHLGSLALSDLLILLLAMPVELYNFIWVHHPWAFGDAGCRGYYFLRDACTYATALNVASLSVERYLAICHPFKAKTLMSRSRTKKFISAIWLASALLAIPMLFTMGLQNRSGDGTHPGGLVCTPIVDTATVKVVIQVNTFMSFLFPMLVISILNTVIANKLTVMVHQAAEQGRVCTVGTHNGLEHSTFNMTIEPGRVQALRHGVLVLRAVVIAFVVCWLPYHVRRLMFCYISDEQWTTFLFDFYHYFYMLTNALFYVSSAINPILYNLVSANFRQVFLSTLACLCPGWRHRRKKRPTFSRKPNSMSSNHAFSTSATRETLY

B1: His6-Gαs (alpha subunit of the stimulatory G protein Gs) (natural protein, UniProt P63092 1-394, looked up)
chain: MGCLGNSKTEDQRNEEKAQREANKKIEKQLQKDKQVYRATHRLLLLGAGESGKSTIVKQMRILHVNGFNGEGGEEDPQAARSNSDGEKATKVQDIKNNLKEAIETIVAAMSNLVPPVELANPENQFRVDYILSVMNVPDFDFPPEFYEHAKALWEDEGVRACYERSNEYQLIDCAQYFLDKIDVIKQADYVPSDQDLLRCRVLTSGIFETKFQVDKVNFHMFDVGGQRDERRKWIQCFNDVTAIIFVVASSSYNMVIREDNQTNRLQEALNLFKSIWNNRWLRTISVILFLNKQDLLAEKVLAGKSKIEDYFPEFARYTTPEDATPEPGEDPRVTRAKYFIRDEFLRISTASGDGRHYCYPHFTCAVDTENIRRVFNDCRDIIQRMHLRQYELL
notes: Alpha subunit of Gs; construct donated by Renaud Wagner (University of Strasbourg); Also tested with GTPγS (same protein, assay a2); also called His6-Gs; His-Gαs
In the case of B1, the dissociation constant (Kd) in experiment [1] is 9 nM; in experiment [2], 65 nM.
